Measurements taken from US20090175855A1 (Genentech, published 2009).

Tests used:
[1] = target: T1, PRO87299/LIGHT (both expressed on the same cells) (human, UniProt Q7Z6A9 31-289; O43557 1-240); assay: radioligand binding to cells expressing PRO87299/LIGHT, Scatchard analysis
T1 construct: also called Expressed protein PRO87299/LIGHT

[2] = target: T2, hCTLA4-Fc (human, UniProt P16410 37-162, limits assumed); assay: Biacore; hCTLA4-Fc amine coupled to a CM5 chip, HVEM-Fc injected at 2 ug/ml and 5 ul/min
T2 construct: Bought (R&D systems); not shown: Fc; not described
T2 sequence (looked up): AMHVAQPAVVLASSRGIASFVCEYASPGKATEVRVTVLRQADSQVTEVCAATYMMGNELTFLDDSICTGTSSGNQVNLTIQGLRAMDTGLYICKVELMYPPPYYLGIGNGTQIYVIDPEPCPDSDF

[3] = target: T3, hPD-1-Fc (human, UniProt Q15116 25-167, limits assumed); assay: Biacore; hPD-1-Fc amine coupled to a CM5 chip, HVEM-Fc injected at 2 ug/ml and 5 ul/min
T3 construct: Bought (R&D systems); not shown: Fc; not described
T3 sequence (Q15116 25-167 limits assumed): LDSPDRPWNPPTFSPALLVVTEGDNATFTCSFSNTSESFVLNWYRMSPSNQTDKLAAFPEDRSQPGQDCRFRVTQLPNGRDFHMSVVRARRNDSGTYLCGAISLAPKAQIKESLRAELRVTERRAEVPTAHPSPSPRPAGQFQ

[4] = target: T4, hCD28-Fc (human, UniProt P10747 19-152, limits assumed); assay: Biacore; hCD28-Fc amine coupled to a CM5 chip, HVEM-Fc injected at 2 ug/ml and 5 ul/min
T4 construct: Bought (R&D systems); not shown: Fc; not described
T4 sequence (P10747 19-152 limits assumed): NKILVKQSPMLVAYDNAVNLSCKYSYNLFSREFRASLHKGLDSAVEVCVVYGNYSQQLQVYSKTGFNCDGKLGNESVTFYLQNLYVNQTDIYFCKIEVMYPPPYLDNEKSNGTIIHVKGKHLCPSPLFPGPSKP

[5] = target: T5, hICOS-Fc (human, UniProt Q9Y6W8 21-141, limits assumed); assay: Biacore; hICOS-Fc amine coupled to a CM5 chip, HVEM-Fc injected at 2 ug/ml and 5 ul/min
T5 construct: Bought (R&D systems); not shown: Fc; not described
T5 sequence (looked up): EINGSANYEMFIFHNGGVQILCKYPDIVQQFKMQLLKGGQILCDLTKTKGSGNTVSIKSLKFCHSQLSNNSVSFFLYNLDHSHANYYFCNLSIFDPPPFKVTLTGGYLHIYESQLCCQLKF

[6] = target: T6, LIGHT expressed on transfected cells (Homo sapiens (Human), UniProt O43557 1-240); assay: radioligand binding to transfected cells, Scatchard analysis
T6 construct: also called Expressed protein LIGHT

[7] = target: T7, PRO87299 on cells (human, UniProt Q7Z6A9 31-289); assay: as above
T7 construct: Used both for transfected cells and for the native protein on human primary B and CD4+ T cells; also called PRO87299 transfected cells; 293 cells expressing PRO87299

[8] = target: T8, PRO87299(ECD)-Fc (human, UniProt Q7Z6A9 31-155, I-125 radiolabel in the cell binding assays (Table 7); residues not stated); assay: Biacore; HVEM-Fc amine coupled to a CM5 chip at 150 RU, PRO87299-Fc 17 nM injected at 5 ul/min for 1200 s, alone and mixed with 25 nM LIGHT
T8 construct: Extracellular domain (amino acids 1-155) ligated into a plasmid containing a human Fc domain; also called PRO87299-Fc; PRO87299(ECD)-Fc chimera; not shown: human Fc domain
T8 sequence: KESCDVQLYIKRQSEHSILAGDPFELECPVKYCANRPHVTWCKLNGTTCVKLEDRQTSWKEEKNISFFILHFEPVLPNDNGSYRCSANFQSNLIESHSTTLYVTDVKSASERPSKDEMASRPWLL

[9] = target: T9, HVEM expressed on transfected 293 cells (Homo sapiens (Human), UniProt Q92956 39-283); assay: radioligand binding to transfected cells, Scatchard analysis
T9 construct: also called HVEM transfected cells; 293 cells expressing HVEM
T9 sequence: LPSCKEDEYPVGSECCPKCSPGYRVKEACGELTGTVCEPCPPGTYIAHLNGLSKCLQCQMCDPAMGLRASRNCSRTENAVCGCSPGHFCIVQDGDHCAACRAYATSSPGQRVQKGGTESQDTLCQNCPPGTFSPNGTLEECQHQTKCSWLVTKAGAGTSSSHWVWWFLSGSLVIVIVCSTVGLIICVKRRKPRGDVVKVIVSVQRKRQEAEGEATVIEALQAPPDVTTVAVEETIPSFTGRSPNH

B1: HVEM-Fc (Fc fusion)
chain: LPSCKEDEYPVGSECCPKCSPGYRVKEACGELTGTVCEPCPPGTYIAHLNGLSKCLQCQMCDPAMGLRASRNCSRTENAVCGCSPGHFCIVQDGDHCAACRAYATSSPGQRVQKGGTESQDTLCQNCPPGTFSPNGTLEECQHQTKCSWLVTKAGAGTSSS
modifications: I-125 radiolabel in the cell binding assays (Table 7); residues not stated
notes: also called I-125-HVEM-Fc; HVEM-Fc fusion protein; not shown: Fc
- Kd [1]: 0.5 nM
- binding result [2]: no binding (tested: 2 ug/ml)
- binding result [3]: no binding (tested: 2 ug/ml)
- binding result [4]: no binding (tested: 2 ug/ml)
- binding result [5]: no binding (tested: 2 ug/ml)
- Kd [6]: 7 nM
- Kd [7]: 5.5 nM
- binding result [8]: binds

B2: LIGHT-FLAG (ligand)
chain: GEMVTRLPDGPAGSWEQLIQERRSHEVNPAAHLTGANSSLTGSGGPLLWETQLGLAFLRGLSYHDGALVVTKAGYYYIYSKVQLGGVGCPLGLASTITHGLYKRTPRYPEELELLVSQQSPCGRATSSSRVWWDSSFLGGVVHLEAGEEVVVRVLDERLVRLRDGTRSYFGAFMV
modifications: I-125 radiolabel; residues not stated
notes: also called I-125-LIGHT-FLAG; not shown: FLAG tag
- Kd [9]: 2.5 nM
